The target of data set [1] is Fibrinogen, deglycosylated (UniProt P02671-2;P02675;P02679 P02671-2:20-644,P02675:31-491,P02679:27-453). Briefly: filter; same buffer. Particulars: tags: chemically deglycosylated with TFMS; chain copies: 2; label: alpha-32P-dATP. As to the method:
(§1) Dissociation constants in solution were determined by equilibrium filtration (Jenison et al., Science 1994, 263, 1425-1429; Huang & Szostak, RNA 2003, 9: 1456-1463, incorporated herein by reference in their entireties). Using this technique, the bound and unbound ligand (DNA) partition between the two portions separated by a membrane. DNA was first amplified into dsDNA using two primers by PCR (25 cycles of 0.5 min at 94° C., 0.5 min at 46° C., and 0.5 min at 72° C., followed by 5 min at 72° C.). The dsDNA product was then split into ssDNA using one primer and α-³²P-dATP by one-round PCR. The ³²P-labeled ssDNA ligand (10 nM) and the protein (1-1000 nM) in the 100 μL of binding buffer were incubated for 15 min at 25° C. prior to loading into the Microcon YM-100 unit (Millipore, Billerica, Mass.). The solution was centrifuged at 13,000 g for 10 sec to saturate the membrane, and the filtrate was transferred back to the unit. The solution was centrifuged for another 20 sec, and the filtrate (about 10 μL) was collected. Aliquots (10 μL) were taken from both the remaining solution and the filtrate, and radioactivity in each aliquot was determined by Beckman LS 6500 liquid scintillation counter. All binding assays were duplicated. The equilibrium dissociation constants (Kd) of the ligand-protein interaction were obtained by fitting the dependence of bound fractions of specific binding on the concentration of the aptamers to the equation Y=B max X/(Kd+X), using the SigmaPlot program.
(§2) To determine the extent to which the aptamers 85A (SEQ ID NO.: 13), 85B (SEQ ID NO.: 14), and 85C (SEQ ID NO.: 15) bind specifically to fibrinogen, their dissociation constants (Kd) were measured using the equilibrium filtration method with radiolabeled α-³²P-dATP. The target substrate to which the aptamer was binding was fibrinogen (FIG. 12A), deglycosylated fibrinogen (FIG. 12B) and periodated fibrinogen (FIG. 12C).

Data set [2] concerns the target Fibrinogen, periodate-treated (UniProt P02671-2;P02675;P02679 P02671-2:20-644,P02675:31-491,P02679:27-453). Put plainly: filter; same buffer. Particulars: tags: glycans oxidised with sodium periodate; chain copies: 2; label: alpha-32P-dATP. As to the method: as §1, §2
The target of data set [3] is T1, Fibrinogen (glycosylated, untreated) (UniProt P02671-2;P02675;P02679 P02671-2:20-644,P02675:31-491,P02679:27-453). Put plainly: filter; same buffer; 64 nM in Table 1. Particulars: chain copies: 2; label: alpha-32P-dATP. As to the method:
as §1, with “The solution was centrifuged for another 20 sec, and the filtrate (about 10 μL) was collected.” left out, “All binding assays were duplicated. The equilibrium dissociation constants (Kd) of the ligand-protein interaction were obtained by fitting the dependence of bound fractions of specific binding on the concentration of the aptamers to the equation Y=B max X/(Kd+X), using the SigmaPlot program.” left out
(§3) To determine the extent to which the aptamers 85A (SEQ ID NO.: 13), 85B (SEQ ID NO.: 14), and 85C (SEQ ID NO.: 15) bind specifically to fibrinogen, their dissociation constants (Kd) were measured using the equilibrium filtration method with radiolabeled α-³²P-dATP. […]

The target in the next data set is T2, Fetuin (UniProt P12763 P12763:19-359).
T2 sequence: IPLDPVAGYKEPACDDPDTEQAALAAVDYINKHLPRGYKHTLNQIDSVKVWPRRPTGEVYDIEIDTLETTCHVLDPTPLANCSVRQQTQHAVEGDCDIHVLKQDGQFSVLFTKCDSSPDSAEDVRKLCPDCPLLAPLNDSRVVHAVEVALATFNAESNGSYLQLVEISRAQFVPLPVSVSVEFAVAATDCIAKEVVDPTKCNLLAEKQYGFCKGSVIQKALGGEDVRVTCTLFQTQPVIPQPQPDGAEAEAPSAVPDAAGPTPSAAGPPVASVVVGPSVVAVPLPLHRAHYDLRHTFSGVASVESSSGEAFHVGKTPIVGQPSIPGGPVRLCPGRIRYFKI
Briefly: filter; specificity control. The following applies: label: alpha-32P-dATP.

Data set [4] has as its target Alpha-1 acid glycoprotein (UniProt P02763 P02763:19-201). Briefly: filter; specificity control. The following applies: label: alpha-32P-dATP.
Data set [5] has as its target T1, Fibrinogen (glycosylated, untreated). Briefly: filter; same buffer; 102 nM in Table 1. The following applies: chain copies: 2; label: alpha-32P-dATP. On the procedure: as §1, with “The solution was centrifuged for another 20 sec, and the filtrate (about 10 μL) was collected.” left out, “All binding assays were duplicated. The equilibrium dissociation constants (Kd) of the ligand-protein interaction were obtained by fitting the dependence of bound fractions of specific binding on the concentration of the aptamers to the equation Y=B max X/(Kd+X), using the SigmaPlot program.” left out
as §3

For data set [6] the target is unchanged. Briefly: filter; same buffer; boronic acid destroyed by peroxide. Particulars: chain copies: 2; label: alpha-32P-dATP.
The target is the same in data set [7]. Briefly: filter; same buffer. The following applies: chain copies: 2; label: alpha-32P-dATP. As to the method: as §1, §2
The target is the same in data set [8]. Put plainly: filter; same buffer; 193 nM in Table 1. Particulars: chain copies: 2; label: alpha-32P-dATP. On the procedure: as §1, with “The solution was centrifuged for another 20 sec, and the filtrate (about 10 μL) was collected.” left out, “All binding assays were duplicated. The equilibrium dissociation constants (Kd) of the ligand-protein interaction were obtained by fitting the dependence of bound fractions of specific binding on the concentration of the aptamers to the equation Y=B max X/(Kd+X), using the SigmaPlot program.” left out
as §3

Chain of Fibrinogen, periodate-treated (P02671 other isoform, or with tags, fused parts or gaps, chain 1 of 3): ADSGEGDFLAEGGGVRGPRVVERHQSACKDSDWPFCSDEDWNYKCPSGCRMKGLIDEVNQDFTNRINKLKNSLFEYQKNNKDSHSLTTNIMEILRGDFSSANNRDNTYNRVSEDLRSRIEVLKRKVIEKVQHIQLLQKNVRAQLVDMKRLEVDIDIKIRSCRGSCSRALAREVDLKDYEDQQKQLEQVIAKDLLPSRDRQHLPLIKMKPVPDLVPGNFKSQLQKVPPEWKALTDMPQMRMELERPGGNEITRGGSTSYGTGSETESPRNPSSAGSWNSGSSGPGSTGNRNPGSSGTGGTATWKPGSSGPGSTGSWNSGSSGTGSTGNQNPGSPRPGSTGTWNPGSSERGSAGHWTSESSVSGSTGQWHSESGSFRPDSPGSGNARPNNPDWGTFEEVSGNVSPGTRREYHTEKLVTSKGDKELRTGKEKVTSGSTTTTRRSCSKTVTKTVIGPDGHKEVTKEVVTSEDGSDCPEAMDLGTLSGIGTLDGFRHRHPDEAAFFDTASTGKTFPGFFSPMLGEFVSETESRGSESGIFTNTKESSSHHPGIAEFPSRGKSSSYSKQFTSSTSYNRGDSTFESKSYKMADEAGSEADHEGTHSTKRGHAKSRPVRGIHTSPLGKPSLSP
Chain of Fibrinogen, periodate-treated (P02675 31-491, chain 2 of 3): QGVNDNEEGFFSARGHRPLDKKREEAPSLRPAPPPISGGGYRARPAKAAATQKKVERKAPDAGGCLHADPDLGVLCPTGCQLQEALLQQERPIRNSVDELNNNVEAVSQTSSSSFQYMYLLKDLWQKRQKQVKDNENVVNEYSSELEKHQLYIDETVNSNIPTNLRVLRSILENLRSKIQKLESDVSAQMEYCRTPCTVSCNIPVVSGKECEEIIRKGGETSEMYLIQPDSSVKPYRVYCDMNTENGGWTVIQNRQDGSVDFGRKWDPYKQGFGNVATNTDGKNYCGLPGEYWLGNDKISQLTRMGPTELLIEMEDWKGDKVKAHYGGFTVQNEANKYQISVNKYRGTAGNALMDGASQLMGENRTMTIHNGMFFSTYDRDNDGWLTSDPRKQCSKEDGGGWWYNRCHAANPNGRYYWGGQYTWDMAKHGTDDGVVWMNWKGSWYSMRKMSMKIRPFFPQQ
Chain of Fibrinogen, periodate-treated (P02679 27-453, chain 3 of 3): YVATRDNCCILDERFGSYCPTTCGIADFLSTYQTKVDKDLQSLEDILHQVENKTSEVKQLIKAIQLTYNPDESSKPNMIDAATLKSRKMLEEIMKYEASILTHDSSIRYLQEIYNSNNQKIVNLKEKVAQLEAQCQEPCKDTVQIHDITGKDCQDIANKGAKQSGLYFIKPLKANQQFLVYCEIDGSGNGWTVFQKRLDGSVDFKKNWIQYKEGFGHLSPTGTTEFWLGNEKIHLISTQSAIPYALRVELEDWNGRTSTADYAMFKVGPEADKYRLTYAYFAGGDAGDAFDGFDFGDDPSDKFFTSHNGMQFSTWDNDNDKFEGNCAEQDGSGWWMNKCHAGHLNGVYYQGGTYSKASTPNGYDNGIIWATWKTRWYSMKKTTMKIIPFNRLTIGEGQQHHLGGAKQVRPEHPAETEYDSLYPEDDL
Chain of Fibrinogen, deglycosylated (P02671 other isoform, or with tags, fused parts or gaps, chain 1 of 3): as the sequence (P02671 other isoform, or with tags, fused parts or gaps, chain 1 of 3) above
Chain of Fibrinogen, deglycosylated (P02675 31-491, chain 2 of 3): as the sequence (P02675 31-491, chain 2 of 3) above
Chain of Fibrinogen, deglycosylated (P02679 27-453, chain 3 of 3): as the sequence (P02679 27-453, chain 3 of 3) above
T1 sequence (P02671 other isoform, or with tags, fused parts or gaps, chain 1 of 3): as the sequence (P02671 other isoform, or with tags, fused parts or gaps, chain 1 of 3) above
T1 sequence (P02675 31-491, chain 2 of 3): as the sequence (P02675 31-491, chain 2 of 3) above
T1 sequence (P02679 27-453, chain 3 of 3): as the sequence (P02679 27-453, chain 3 of 3) above
Chain of Alpha-1 acid glycoprotein (P02763 19-201, one chain of several): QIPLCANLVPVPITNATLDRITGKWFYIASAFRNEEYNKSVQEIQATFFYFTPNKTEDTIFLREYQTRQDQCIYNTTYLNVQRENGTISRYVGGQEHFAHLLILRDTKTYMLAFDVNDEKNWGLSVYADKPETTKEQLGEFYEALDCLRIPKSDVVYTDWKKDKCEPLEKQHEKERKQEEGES

B1: 85B TTP (ssDNA)
DNA: CCTTCGTTGTCTGCCTTCGTAGGACCGCAGACATCGACGCAGGGAAATTCCGCAAGTCCAGCCAAATGCCACCCTTCAGAATTCGCACCA
Usually Kd stands for the constant that tells how readily two partners part at equilibrium. Consider B1, for which the results for the Kd in data set [1], in [2] and in [3] were 140 nM, 130 nM and 63.8 nM, respectively.

B2: 85A TTP (ssDNA)
DNA: CCTTCGTTGTCTGCCTTCGTAGCGGATCGAATTACGCGTTAACGGCAACCGATAACGGGACCGATTGCACACCCTTCAGAATTCGCACCA
With B2, the Kd with Fetuin amounted to 1600 nM; in data set [4] it was 600 nM; in [1], 60.2 nM; in data set [2], 67.4 nM; in data set [5], 102 nM.

B3: 85A B-TTP H2O2-treated (ssDNA)
DNA: B2 DNA
modifications: B-TTP positions with boronic acid oxidised by peroxide
With B3, in data set [6], the affinity, expressed as Kd, was 173 nM.

B4: 85A M-TTP (ssDNA)
DNA: B2 DNA
modifications: T positions from M-TTP (alkyne-modified dU without boronic acid)
Take B4: binding in data set [7] was put at a Kd of 138 nM.

B5: 85C TTP (ssDNA)
DNA: CCTTCGTTGTCTGCCTTCGTAGTCGACTCTGACGCATGGACGTATCCTGTGCGTATGCATTATGAAGCACACCCTTCAGAATTCGCACCA
Regarding B5, the values for the dissociation constant Kd in [8], in [1] and in data set [2] were 122 nM, 256 nM and 321 nM, respectively.

The record behind these values is patent publication US20130184160, “NUCLEOTIDES AND APTAMERS CONTAINING BORONIC ACID GROUPS HAVING BIASED BINDING TO GLYCOSYLATED PROTEINS, AND USES THEREOF” (published 2013).
